B1: IL6R-BP220/IL6R-L (antibody, human IgG1, kappa, name in EU numbering)
heavy: QVQLQESGPGLVKPSETLSLTCAVSGHSISHDHAWSWVRQPPGEGLEWIGFISYSGITNYNPSLQGRVTISRDNSKNTLYLQMNSLRAEDTAVYYCARSLARTTAMDYWGEGTLVTVSSASTKGPSVFPLAPSSKSTSGGTAALGCLVKDYFPEPVTVSWNSGALTSGVHTFPAVLQSSGLYSLSSVVTVPSSSLGTQTYICNVNHKPSNTKVDKKVEPKSCDKTHTCPPCPAPDLLGDDSVFLFPPKPKDTLMISRTPEVTCVVVDVSDEDGEVKFNWYVDGVEVHNAKTKPREEQDNSTYRVVSVLTVLHQDWLNGKEYKCKVSNKALPKPIEKTISKAKGQPREPQVYTLPPSRDELTKNQVSLTCLVKGFYPSDIAVEWESNGQPENNYKTTPPVLDSDGSFFLYSKLTVDKSRWQQGNVFSCSVMHEALHNHYTQESLSLSP
light: not shown
notes: IgG1; alterations on IL6R-B3, EU numbering
B2: IL6R-BP233/IL6R-L (antibody, human IgG1, kappa, name in EU numbering)
heavy: B1 heavy with D235E, L236Y, D270H, D298Y
light: not shown
notes: as for B1
B3: IL6R-BP246/IL6R-L (antibody, human IgG1, kappa, name in EU numbering)
heavy: B1 heavy with S269Q, K328A, K332R
light: not shown
notes: as for B1
B4: IL6R-BP187/IL6R-L (antibody, human IgG1, kappa, name in EU numbering)
heavy: B1 heavy with D235E, L236Y, D239G, D270H, D298Y, K328A
light: not shown
notes: as for B1
B5: IL6R-BP202/IL6R-L (antibody, human IgG1, kappa, name in EU numbering)
heavy: B1 heavy with D235E, D270H, D298Y, K328A, K332R
light: not shown
notes: as for B1
B6: IL6R-BP243/IL6R-L (antibody, human IgG1, kappa, name in EU numbering)
heavy: B1 heavy with L236Y, D298Y, K332R
light: not shown
notes: as for B1
B7: IL6R-BP182/IL6R-L (antibody, human IgG1, kappa, name in EU numbering)
heavy: B1 heavy with D239G, D270H
light: not shown
notes: as for B1
B8: IL6R-BP189/IL6R-L (antibody, human IgG1, kappa, name in EU numbering)
heavy: B1 heavy with D235E, D298Y, K328A
light: not shown
notes: as for B1
B9: IL6R-BP180/IL6R-L (antibody, human IgG1, kappa, name in EU numbering)
heavy: B1 heavy with D235E, D270H, D298Y
light: not shown
notes: as for B1
B10: IL6R-2B253/IL6R-L (antibody, human IgG1, kappa, name in EU numbering)
heavy: B1 heavy with D239G, D270H, G273P, D298Y, V325M, K332A
light: not shown
notes: as for B1
B11: IL6R-BP196/IL6R-L (antibody, human IgG1, kappa, name in EU numbering)
heavy: B1 heavy with D235E, L236Y, D239G, D298Y, K328A
light: not shown
notes: as for B1
B12: IL6R-BP186/IL6R-L (antibody, human IgG1, kappa, name in EU numbering)
heavy: B1 heavy with L236Y, D270H, K328A
light: not shown
notes: as for B1
B13: IL6R-BP204/IL6R-L (antibody, human IgG1, kappa, name in EU numbering)
heavy: B1 heavy with D239G, D270H, D298Y, K328A, K332R
light: not shown
notes: as for B1
B14: IL6R-BP183/IL6R-L (antibody, human IgG1, kappa, name in EU numbering)
heavy: B1 heavy with L236Y, D239G, D270H, D298Y, K328A
light: not shown
notes: as for B1
B15: IL6R-BP223/IL6R-L (antibody, human IgG1, kappa, name in EU numbering)
heavy: B1 heavy with D235E, L236Y, D298Y, K328A, K332R
light: not shown
notes: as for B1
B16: IL6R-BP184/IL6R-L (antibody, human IgG1, kappa, name in EU numbering)
heavy: B1 heavy with D239G, D270H, D298Y
light: not shown
notes: as for B1
B17: IL6R-BP085/IL6R-L (antibody, human IgG1, kappa, name in EU numbering)
heavy: B1 heavy with D235E, D270H, G273P, D298Y
light: not shown
notes: as for B1
B18: IL6R-BP208/IL6R-L (antibody, human IgG1, kappa, name in EU numbering)
heavy: B1 heavy with D298Y, K332R
light: not shown
notes: as for B1
B19: IL6R-BP211/IL6R-L (antibody, human IgG1, kappa, name in EU numbering)
heavy: B1 heavy with D239G, D298Y, K328A, K332R
light: not shown
notes: as for B1
B20: IL6R-BP132/IL6R-L (antibody, human IgG1, kappa, name in EU numbering)
heavy: B1 heavy with D239G, D270H, G273P, D298Y, K328A
light: not shown
notes: as for B1
B21: IL6R-BP210/IL6R-L (antibody, human IgG1, kappa, name in EU numbering)
heavy: B1 heavy with D235E, D298Y, K332R
light: not shown
notes: as for B1
B22: IL6R-BP197/IL6R-L (antibody, human IgG1, kappa, name in EU numbering)
heavy: B1 heavy with L236Y, K328D
light: not shown
notes: as for B1
B23: IL6R-BP188/IL6R-L (antibody, human IgG1, kappa, name in EU numbering)
heavy: B1 heavy with D298Y
light: not shown
notes: as for B1
B24: IL6R-BP551/IL6R-L (antibody, human IgG1, kappa, name in EU numbering)
heavy: B1 heavy with D235E, V266I, D270E, E274D, K332R
light: not shown
notes: human IgG1
B25: IL6R-BP565/IL6R-L (antibody, human IgG1, kappa, name in EU numbering)
heavy: B1 heavy with S269A, D270E, K332R
light: not shown
notes: human IgG1
B26: IL6R-BP538/IL6R-L (antibody, human IgG1, kappa, name in EU numbering)
heavy: B1 heavy with D235E, V266I, D270E, D298Y, K332R
light: not shown
notes: human IgG1
B27: IL6R-BP536/IL6R-L (antibody, human IgG1, kappa, name in EU numbering)
heavy: B1 heavy with V266I, D270E, A329G, K332R, P398M
light: not shown
notes: human IgG1
B28: IL6R-BP540/IL6R-L (antibody, human IgG1, kappa, name in EU numbering)
heavy: B1 heavy with D235E, V266I, D270E, E274P, K332R
light: not shown
notes: human IgG1
B29: IL6R-BP563/IL6R-L (antibody, human IgG1, kappa, name in EU numbering)
heavy: B1 heavy with D270E, E274D, K332R
light: not shown
notes: human IgG1
B30: IL6R-BP550/IL6R-L (antibody, human IgG1, kappa, name in EU numbering)
heavy: B1 heavy with D235E, V266I, S269G, D270E, E274D, K332R
light: not shown
notes: human IgG1
B31: IL6R-BP539/IL6R-L (antibody, human IgG1, kappa, name in EU numbering)
heavy: B1 heavy with D235E, V266I, S269G, D270E, E274P, K332R
light: not shown
notes: human IgG1
B32: IL6R-BP556/IL6R-L (antibody, human IgG1, kappa, name in EU numbering)
heavy: B1 heavy with D235E, V266I, S269G, D270E, K332R
light: not shown
notes: human IgG1

Numbering of substitutions follows the chain as printed.

These results are taken from patent publication US20220411483A1 (Chugai, published 2022).

Usually Kd stands for the constant that tells how readily two partners part at equilibrium. A lower Kd goes with tighter binding.

The first test has as its target T1, FcγRIa extracellular domain with C-terminal His tag (human, UniProt P12314 16-292).
T1 construct: also called FcgRIa
The test is described as follows: SPR (Biacore), FcgR as analyte.
T1 sequence (P12314 16-292): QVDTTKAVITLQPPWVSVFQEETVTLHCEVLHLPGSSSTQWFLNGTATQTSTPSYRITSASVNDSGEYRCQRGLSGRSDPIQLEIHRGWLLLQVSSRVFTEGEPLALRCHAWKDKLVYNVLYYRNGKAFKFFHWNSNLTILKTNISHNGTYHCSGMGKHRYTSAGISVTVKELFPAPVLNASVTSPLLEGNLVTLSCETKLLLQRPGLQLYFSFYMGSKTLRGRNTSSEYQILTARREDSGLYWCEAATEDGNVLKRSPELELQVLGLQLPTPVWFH
Regarding B1, the Kd came out at 20 nM.
Same read-out and setting: the result for B2 reads 70 nM.
The same measure, in the same setting: the result for B3 reads 8 nM; that for B4, 25 nM; that for B5, 95 nM.
In turn, B6 had a Kd of 3 nM.
B7 returned a Kd of 10 nM.
In turn, B8 came in with a Kd of 42 nM.
Same read-out and setting: the result for B9 reads 98 nM.

The target in a further test is T2, FcγRIIa R type extracellular domain with C-terminal His tag (human, UniProt P12318 34-217).
T2 construct: extracellular domain; also called FcgRIIaR
T2 sequence (looked up): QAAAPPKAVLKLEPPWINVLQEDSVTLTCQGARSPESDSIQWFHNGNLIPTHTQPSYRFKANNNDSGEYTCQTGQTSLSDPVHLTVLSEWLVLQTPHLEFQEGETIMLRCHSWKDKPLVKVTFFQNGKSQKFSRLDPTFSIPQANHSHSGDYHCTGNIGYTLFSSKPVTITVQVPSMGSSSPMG
The test is described as follows: SPR (Biacore), FcgR as analyte. A general note: In SPR one partner is held on a chip, and binding of the other changes the refractive index at the surface.
In turn, B10 displayed a Kd of 5000 nM.
With B11, the Kd was determined as 3000 nM.
Molecule B12 gave a Kd of 960 nM.
Consider B13, for which the Kd amounted to 4500 nM.
The same measure, in the same setting: the result for B14 reads 2600 nM; that for B15, 600 nM.
The same measure, in the same setting: the result for B16 reads 2300 nM.
As for B17, the Kd came to 4200 nM.
Consider B18, for which the affinity, expressed as Kd, was 850 nM.
Molecule B19 showed a Kd of 4100 nM.
Same read-out and setting: next, B20: 8000 nM; B4: 2800 nM; B21: 1000 nM.
B22 showed a Kd of 980 nM.
For the molecule B23, the Kd was 1000 nM.

The target in the next test is T3, FcγRIa extracellular domain with C-terminal His tag (human, UniProt P12314 16-292).
T3 construct: also called FcgRIa; CD64; not shown: His tag at the C terminus
The test is described as follows: SPR, antibody captured, FcgR analyte.
T3 sequence (P12314 16-292): as the sequence (P12314 16-292) above
On to B24, for which binding was characterised by a dissociation constant (Kd) of 32 nM.
On the same count and under the same terms, next, B25: 2.4 nM.
Still for that read-out and setting: the result for B26 reads 55 nM.
B27 yielded a Kd of 8.9 nM.
The same measure, in the same setting: next, B28: 96 nM; B29: 12 nM; B30: 25 nM.
In turn, B31 showed a Kd of 64 nM.
The same measure, in the same setting: the result for B32 reads 43 nM.

The target in a further test is T4, FcγRIIa R type extracellular domain with C-terminal His tag (human, UniProt P12318 34-217).
T4 construct: extracellular domain; also called FcgRIIaR; not shown: His tag at the C terminus
T4 sequence (looked up): T2 sequence (looked up)
The test is described as follows: SPR, antibody captured, FcgR analyte.
Molecule B24 returned a Kd of 250 nM.
On to B25, for which the Kd was 230 nM.
Regarding B26, the Kd was determined as 200 nM.
Same read-out and setting: the result for B27 reads 79 nM; that for B28, 210 nM; that for B29, 460 nM.
The molecule B30 had a Kd of 340 nM.
Turning to B31, the dissociation constant (Kd) amounted to 330 nM.
Still for that read-out and setting: next, B32: 300 nM.

Another test deals with T5, FcγRIIa H type extracellular domain with C-terminal His tag (human, UniProt P12318 34-217).
T5 construct: extracellular domain; also called FcgRIIaH; not shown: His tag at the C terminus
T5 sequence (looked up): T2 sequence (looked up) with R134H
The test is described as follows: SPR, antibody captured, FcgR analyte.
In the case of B24, the Kd worked out at 2800 nM.
On the same count and under the same terms, the result for B25 reads 4700 nM; that for B26, 3000 nM.
On the same count and under the same terms, next, B27: 1300 nM; B28: 4600 nM; B29: 8300 nM.
On the same count and under the same terms, next, B30: 5000 nM.
Molecule B31 yielded a Kd of 5600 nM.
Turning to B32, binding was put at a Kd of 5800 nM.

The target in a further test is T6, FcγRIIb extracellular domain with C-terminal His tag (human, UniProt P31994 43-217).
T6 construct: extracellular domain; also called FcgRIIb; not shown: His tag at the C terminus
T6 sequence (looked up): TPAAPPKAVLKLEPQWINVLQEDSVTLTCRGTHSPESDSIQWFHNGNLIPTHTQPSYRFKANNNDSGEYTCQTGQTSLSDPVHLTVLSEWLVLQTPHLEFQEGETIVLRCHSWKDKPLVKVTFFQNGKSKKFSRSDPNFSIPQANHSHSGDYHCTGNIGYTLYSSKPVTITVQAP
The test is described as follows: SPR, antibody captured, FcgR analyte.
In the case of B24, the dissociation constant Kd amounted to 6.4 nM.
Regarding B25, the Kd is 5.5 nM.
Same read-out and setting: the result for B26 reads 5.3 nM.
Same read-out and setting: next, B27: 3 nM; B28: 5.7 nM.
Regarding B29, the dissociation constant (Kd) is 16 nM.
The same measure, in the same setting: next, B30: 7.6 nM; B31: 8.4 nM; B32: 8.4 nM.

The target of another test is T4, FcγRIIa R type extracellular domain …. The test is described as follows: SPR; KD of IL6R-B3/IL6R-L divided by KD of variant.
As for B24, the “Relative FcgRIIaR-binding Activity” value is 4.4.
On the same count and under the same terms, next, B25: 4.7.
Same read-out and setting: the result for B26 reads 5.3; that for B27, 13.7; that for B28, 5.1.
Still for that read-out and setting: the result for B29 reads 2.4; that for B30, 3.2.
In the case of B31, the “Relative FcgRIIaR-binding Activity” value turned out to be 3.3.
For the molecule B32, the “Relative FcgRIIaR-binding Activity” value amounted to 3.6.

A further test deals with T6, FcγRIIb extracellular domain with …. The test is described as follows: SPR; KD of IL6R-B3/IL6R-L divided by KD of variant.
As for B24, the “Relative FcgRIIb-binding Activity” value turned out to be 481.
The same measure, in the same setting: the result for B25 reads 563.
In the case of B26, the “Relative FcgRIIb-binding Activity” value came to 585.
As for B27, the “Relative FcgRIIb-binding Activity” value was found to be 1040.
Same read-out and setting: the result for B28 reads 539; that for B29, 196; that for B30, 405.
For B31, the “Relative FcgRIIb-binding Activity” value was 368.
On the same count and under the same terms, next, B32: 369.
